Among the data in patent US8940861B2, “Variants of ancestral uricases and uses thereof” (Georgia Tech Research Corporation, priority 2010, dated 2015) are Km and kcat values, retold here.

Substrate in the data set: O=c1[nH]c(=O)c2[nH]c(=O)[nH]c2[nH]1
In words: purified protein, by the assay type. Conditions: other: 0.1M Na2HPO4/Na2H2PO4, pH 7.4, 24° C.

B1: pig uricase, SEQ ID NO:10 (Sus scrofa) (protein)
chain: MAHYRNDYKKNDEVEFVRTGYGKDMIKVLHIQRDGKYHSIKEVATSVQLTLSSKKDYLHGDNSDVIPTDTIKNTVNVLAKFKGIKSIETFAVTICEHFLSSFKHVIRAQVYVEEVPWKRFEKNGVKHVHAFIYTPTGTHFCEVEQIRNGPPVIHSGIKDLKVLKTTQSGFEGFIKDQFTTLPEVKDRCFATQVYCKWRYHQGRDVDFEATWDTVRSIVLQKFAGPYDKGEYSPSVQKTLYDIQVLTLGQVPEIEDMEISLPNIHYLNIDMSKMGLINKEEVLLPLDNPYGRITGTVKRKLTSRL
The Km is the concentration of substrate that gives half-maximal velocity. As a reminder, the kcat is the maximal rate divided by the concentration of active sites. Turning to B1, the Km stood at 2.1 µM and the turnover number (kcat) worked out at 7.83 s⁻¹.
